Results taken from patent US20220023385A1.

What was measured:
[1] = target: FGFRs expressed on NIH3T3 cells; experiment: cell-based or functional assay
[2] = target: FGFRs expressed on NIH3T3 cells; experiment: equilibrium titration of His-tagged FGF1 on FGFR-expressing NIH3T3 cells at 4 °C, flow cytometry with anti-His antibody

Row | inhibition of ERK phosphorylation induced by 1 nM wild type FGF1 in NIH3T3 cells (Western blot against phosphoERK) [1] [nM] | Kd [2] [nM] | Substance
1 | 1 |  | FGF1 L131R mutant, recombinant soluble, His-tagged (from UniProt P14210 16-155) (ligand)
2 |  | 10 | recombinant soluble wild-type FGF1 with N-terminal 6x His tag (from UniProt P14210 16-155) (ligand)
